From PMC9157081 come the findings set out here.

The chains are these.
T1: His-E1 (Glycine max, UniProt I2FKG6 1-174)
T1 sequence: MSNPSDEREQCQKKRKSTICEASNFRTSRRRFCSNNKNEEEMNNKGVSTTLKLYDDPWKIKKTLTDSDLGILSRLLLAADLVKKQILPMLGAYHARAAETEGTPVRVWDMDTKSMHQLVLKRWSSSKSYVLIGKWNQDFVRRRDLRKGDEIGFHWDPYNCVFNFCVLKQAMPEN

B1: GmMDE06 Probe1 (dsDNA)
DNA 1: TAAAGTATAAGTTTACTAATGGAGTCCATGAGTTAAATTTATAAAACTCT
DNA 2: AGAGTTTTATAAATTTAACTCATGGACTCCATTAGTAAACTTATACTTTA
B2: GsWRKY20 Probe5 (dsDNA)
DNA 1: TTTTTAATTTGTTAACTCGTTGACTCAGTGGTAAACTCGAAAGTC
DNA 2: GACTTTCGAGTTTACCACTGAGTCAACGAGTTAACAAATTAAAAA
B3: Probe4 (dsDNA)
DNA 1: AGTCTTTGTTCTTACATGAGAAACACATGTATTTTTTTTATAGACATTAT
DNA 2: ATAATGTCTATAAAAAAAATACATGTGTTTCTCATGTAAGAACAAAGACT
B4: GmMDE06 Probe2 (dsDNA)
DNA 1: GAATCAAGGGGTGAGACTCACGGTCATGACTCATGTAAATTCGTCTCCCA
DNA 2: TGGGAGACGAATTTACATGAGTCATGACCGTGAGTCTCACCCCTTGATTC
B5: Probe3 (dsDNA)
DNA 1: AGTTGATCAGCCCGAAATACTGCATGCACCTCACAAATTGACAAGTGCTT
DNA 2: AAGCACTTGTCAATTTGTGAGGTGCATGCAGTATTTCGGGCTGATCAACT

In this data set the target is T1, His-E1. The data set is described as follows: EMSA.
Take B1: the binding result was “binds”.

For B2, the binding result is “binds”.

Take B3: the binding result is “binds”.

As to B4, the binding result is recorded as “binds”.

Take B5: the binding result is “binds”.
